The values below come from patent US20260116990A1 (KEY2BRAIN, published 2026).

What is called Kd is the constant that tells how readily two partners part at equilibrium. Higher therefore signals weaker binding. The koff is a measure of how fast the partners let go of each other. One may read the kon as the second-order rate constant of association.

Assay [1] addresses T1, His-tagged ectodomain of human transferrin receptor 1 (hTfR1, R121-F760) (human, UniProt P02786 121-760).
T1 construct: Made in CHO cells; Biotinylated for some uses; also called human TfR1
As to the kind of experiment: SPR; hTfR1 captured on amine-coupled hTf, binder as analyte. On the procedure:
(§1) The contact time was 150 s for each concentration at […] with a final dissociation step of 500 s. […] The data with respect to the association rate constant (ka), the dissociation rate constant (kd) and the equilibrium dissociation constant (KD) was evaluated using Biacore T200 software evaluation tool applying a Langmuir 1:1 model.
For orientation: Surface plasmon resonance follows binding to a sensor surface in real time, without labels.

The target in assay [2] is T1, His-tagged ectodomain of human …. As to the kind of experiment: SPR Biacore T200 single-cycle; hTfR1 captured on amine-coupled hTf, binder as analyte; 1:1 model. On the procedure: as §1
Assay [3] concerns the target T2, His-tagged ectodomain of mouse transferrin receptor 1 (mTfR1, S122-F763) (mouse, UniProt Q62351 122-763).
T2 construct: also called mouse TfR1
As to the kind of experiment: ELISA on coated TfR1 ectodomain; 125I-labelled or original sample, anti-VHH detection. On the procedure:
Briefly, high-binding half-area 96-well plates (Costar 3690, Merck) were coated with ectodomains of hTfR1 and mTfR1 at […] (in PBS pH 7.4). and left over night at 4° C. Plates were blocked for 1 h using 1% BSA 0.05% Tween®20 (Merck) in PBS.
(In general: An ELISA detects its analyte on a solid surface through an enzyme-linked reagent.)

In assay [4] the target is T1, His-tagged ectodomain of human …. Briefly: SPR Biacore 8K single-cycle; hTfR1 amine-coupled to CM5 chip, fusion as analyte.

T1 sequence (P02786 other isoform, or with tags, fused parts or gaps limits assumed): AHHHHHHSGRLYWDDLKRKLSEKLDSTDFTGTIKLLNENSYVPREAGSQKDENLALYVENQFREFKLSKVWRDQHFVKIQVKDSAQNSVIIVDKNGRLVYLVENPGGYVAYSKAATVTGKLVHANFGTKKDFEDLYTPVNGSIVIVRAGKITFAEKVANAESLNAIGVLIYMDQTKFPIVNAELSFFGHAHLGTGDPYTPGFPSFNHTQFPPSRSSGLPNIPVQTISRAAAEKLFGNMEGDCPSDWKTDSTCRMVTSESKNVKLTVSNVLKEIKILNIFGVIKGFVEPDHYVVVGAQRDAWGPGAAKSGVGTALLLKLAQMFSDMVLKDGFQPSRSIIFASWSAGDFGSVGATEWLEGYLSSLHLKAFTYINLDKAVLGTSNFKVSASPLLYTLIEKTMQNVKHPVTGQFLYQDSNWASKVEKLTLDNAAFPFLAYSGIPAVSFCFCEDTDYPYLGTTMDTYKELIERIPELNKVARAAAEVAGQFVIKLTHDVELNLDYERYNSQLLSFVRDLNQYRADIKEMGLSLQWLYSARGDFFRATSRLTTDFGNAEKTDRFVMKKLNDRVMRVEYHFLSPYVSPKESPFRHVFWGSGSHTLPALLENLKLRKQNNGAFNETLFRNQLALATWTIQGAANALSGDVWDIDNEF
T2 sequence (Q62351 other isoform, or with tags, fused parts or gaps limits assumed): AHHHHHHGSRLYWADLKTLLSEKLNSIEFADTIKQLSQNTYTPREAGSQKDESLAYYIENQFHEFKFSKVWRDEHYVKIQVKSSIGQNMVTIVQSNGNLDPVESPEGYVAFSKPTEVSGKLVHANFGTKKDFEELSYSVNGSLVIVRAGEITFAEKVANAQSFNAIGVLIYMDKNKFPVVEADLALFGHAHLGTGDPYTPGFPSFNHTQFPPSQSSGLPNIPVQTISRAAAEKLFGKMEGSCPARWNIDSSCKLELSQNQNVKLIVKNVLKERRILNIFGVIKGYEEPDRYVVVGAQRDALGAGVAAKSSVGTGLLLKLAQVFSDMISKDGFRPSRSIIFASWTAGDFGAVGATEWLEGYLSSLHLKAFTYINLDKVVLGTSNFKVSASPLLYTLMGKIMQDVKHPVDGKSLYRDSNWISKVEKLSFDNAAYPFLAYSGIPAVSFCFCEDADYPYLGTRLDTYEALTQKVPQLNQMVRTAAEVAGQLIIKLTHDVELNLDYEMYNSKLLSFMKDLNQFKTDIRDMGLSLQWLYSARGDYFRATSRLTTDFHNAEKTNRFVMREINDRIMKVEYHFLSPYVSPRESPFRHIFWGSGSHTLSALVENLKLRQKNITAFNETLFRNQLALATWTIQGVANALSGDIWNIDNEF

B1: KB_B01 monomeric VHH with C-terminal 6xHis tag and C-tag (VHH)
VHH: QVQLQESGGGLVQAGGSLRLSCAASGTPFSNNYMRWYRQAPGKQREWVAGFTSGGSTNYADSVKGRFTISRDNAEGTVYLQMDNLKPEDTAVYYCYFLDVWGQGTQVTVSS
notes: Single VHH unit from the E. coli periplasm
As for B1, in assay [1], the “fold lower affinity (KD) than BA1” value turned out to be 166 fold. In assay [2], this molecule yielded a Kd of 3.31 nM, an off-rate (koff) of 0.00198 s⁻¹ and an on-rate (kon) of 597000 M⁻¹ s⁻¹.

B2: scFv-BV (3D6 scFv at the N-terminus of benchmark VHH BV) (bispecific antibody)
chain: EVKLVESGGGLVKPGASLKLSCAASGFTFSNYGMSWVRQNSDKRLEWVASIRSGGGRTYYSDNVKGRFTISRENAKNTLYLQMSSLKSEDTALYYCVRYDHYSGSSDYWGQGTTVTVSGGGGSGGGGSGGGGSYVVMTQTPLTLSVTIGQPASISCKSSQSLLDSDGKTYLNWLLQRPGQSPKRLIYLVSKLDSGVPDRFTGSGSGTDFTLKISRIEAEDLGLYYCWQGTHFPRTFGGGTKLEIKGGGGSGGGGSGGGGSEVQLVESGGGVVQPGGSLKLSCVASGTDFSINFIRWYRQAPGKQREFVAGFTATGNTNYADSMKGRFTISRDNTKNAVYLQIDSLKPEDTAVYYCYMLDKWGQGTQVTVSSGSENLYFQSHHHHHH
notes: also called scFc-BV
Regarding B2, the binding result in assay [3] is on record as “binds”. In assay [4], this molecule returned a dissociation constant (Kd) of 0.698 nM, a koff of 0.000122 s⁻¹ and a kon of 175000 M⁻¹ s⁻¹.

B3: scFv-KB_B01 (3D6 scFv at the N-terminus of KB_B01) (bispecific antibody)
chain: EVKLVESGGGLVKPGASLKLSCAASGFTFSNYGMSWVRQNSDKRLEWVASIRSGGGRTYYSDNVKGRFTISRENAKNTLYLQMSSLKSEDTALYYCVRYDHYSGSSDYWGQGTTVTVSGGGGSGGGGSGGGGSYVVMTQTPLTLSVTIGQPASISCKSSQSLLDSDGKTYLNWLLQRPGQSPKRLIYLVSKLDSGVPDRFTGSGSGTDFTLKISRIEAEDLGLYYCWQGTHFPRTFGGGTKLEIKGGGGSGGGGSGGGGSQVQLQESGGGLVQAGGSLRLSCAASGTPFSNNYMRWYRQAPGKQREWVAGFTSGGSTNYADSVKGRFTISRDNAEGTVYLQMDNLKPEDTAVYYCYFLDVWGQGTQVTVSSGSENLYFQSHHHHHH
notes: also called scFv-VHH
As to B3, the binding result in assay [3] is “binds”. In addition, in assay [4], binding was characterised by a dissociation constant (Kd) of 1.8 nM, the koff was 0.000259 s⁻¹ and the kon stood at 144000 M⁻¹ s⁻¹.

B4: BV-scFv (benchmark VHH BV at the N-terminus of 3D6 scFv) (bispecific antibody)
chain: EVQLVESGGGVVQPGGSLKLSCVASGTDFSINFIRWYRQAPGKQREFVAGFTATGNTNYADSMKGRFTISRDNTKNAVYLQIDSLKPEDTAVYYCYMLDKWGQGTQVTVSSGGGGSGGGGSGGGGSEVKLVESGGGLVKPGASLKLSCAASGFTFSNYGMSWVRQNSDKRLEWVASIRSGGGRTYYSDNVKGRFTISRENAKNTLYLQMSSLKSEDTALYYCVRYDHYSGSSDYWGQGTTVTVSGGGGSGGGGSGGGGSYVVMTQTPLTLSVTIGQPASISCKSSQSLLDSDGKTYLNWLLQRPGQSPKRLIYLVSKLDSGVPDRFTGSGSGTDFTLKISRIEAEDLGLYYCWQGTHFPRTFGGGTKLEIKGSENLYFQSHHHHHH
As for B4, the binding result in assay [3] is “binds”. For the same molecule, in assay [4], the affinity, expressed as Kd, was 0.189 nM; the koff stood at 0.000117 s⁻¹; the kon came to 617000 M⁻¹ s⁻¹.

B5: KB_B01-scFv (KB_B01 at the N-terminus of 3D6 scFv) (bispecific antibody)
chain: QVQLQESGGGLVQAGGSLRLSCAASGTPFSNNYMRWYRQAPGKQREWVAGFTSGGSTNYADSVKGRFTISRDNAEGTVYLQMDNLKPEDTAVYYCYFLDVWGQGTQVTVSSGGGGSGGGGSGGGGSEVKLVESGGGLVKPGASLKLSCAASGFTFSNYGMSWVRQNSDKRLEWVASIRSGGGRTYYSDNVKGRFTISRENAKNTLYLQMSSLKSEDTALYYCVRYDHYSGSSDYWGQGTTVTVSGGGGSGGGGSGGGGSYVVMTQTPLTLSVTIGQPASISCKSSQSLLDSDGKTYLNWLLQRPGQSPKRLIYLVSKLDSGVPDRFTGSGSGTDFTLKISRIEAEDLGLYYCWQGTHFPRTFGGGTKLEIKGSENLYFQSHHHHHH
notes: also called VHH-scFv
As to B5, the binding result in assay [3] was “binds”. In assay [4], this molecule had a Kd of 0.845 nM, a koff of 0.00045 s⁻¹ and a kon of 535000 M⁻¹ s⁻¹.
